This note sets out measurements from patent US20250051414A1.

The target in one test is IL-2Rβ/γ Fc heterodimer (UniProt P14784). Nature of the test: BLI (Octet RED384), biotinylated monomeric IL-2/Fc on streptavidin sensors, 1:1 kinetic fit.
Test [1] concerns the target IL2-Ra ectodomain with C-terminal 6xHis tag (UniProt P01589). The test can be described thus: BLI (Octet RED384), biotinylated monomeric IL-2/Fc on streptavidin sensors, equilibrium binding. On the technique in general: BLI is a label-free optical method that tracks binding on a fibre tip over time.
Sequence of UniProt P01589 (P01589 other isoform, or with tags, fused parts or gaps limits assumed): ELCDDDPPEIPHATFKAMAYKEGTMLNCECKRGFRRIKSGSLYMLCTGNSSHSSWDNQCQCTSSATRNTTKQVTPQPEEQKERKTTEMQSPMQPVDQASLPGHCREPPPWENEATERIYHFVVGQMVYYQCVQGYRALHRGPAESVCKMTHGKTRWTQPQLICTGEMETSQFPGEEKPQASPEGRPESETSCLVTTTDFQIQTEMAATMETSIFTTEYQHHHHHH

Sequence of UniProt P14784 (P14784 other isoform, or with tags, fused parts or gaps, chain 1 of 2): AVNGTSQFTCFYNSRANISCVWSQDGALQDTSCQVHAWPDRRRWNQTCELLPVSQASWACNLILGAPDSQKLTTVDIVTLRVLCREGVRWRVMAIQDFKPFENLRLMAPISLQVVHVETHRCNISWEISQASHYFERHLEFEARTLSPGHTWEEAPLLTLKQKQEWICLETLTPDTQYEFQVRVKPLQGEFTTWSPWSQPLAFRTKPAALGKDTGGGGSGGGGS
Sequence of UniProt P14784 (P31785 other isoform, or with tags, fused parts or gaps, chain 2 of 2, further chain): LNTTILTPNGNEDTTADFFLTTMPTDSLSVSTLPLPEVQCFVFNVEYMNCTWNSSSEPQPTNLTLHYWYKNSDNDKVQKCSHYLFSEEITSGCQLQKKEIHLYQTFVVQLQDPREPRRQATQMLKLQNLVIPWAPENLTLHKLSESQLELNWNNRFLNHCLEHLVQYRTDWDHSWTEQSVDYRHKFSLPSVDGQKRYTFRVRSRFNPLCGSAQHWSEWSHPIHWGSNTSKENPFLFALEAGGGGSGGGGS

For WT C-term (Fc fusion), the Kd worked out at 3.04 nM in the test with IL-2Rβ/γ Fc heterodimer and 0.54 nM in test [1].
Turning to V91K C-term (Fc fusion), the Kd turned out to be 7.56 nM with IL-2Rβ/γ Fc heterodimer and 0.69 nM in test [1].
On the same counts, the results for WT N-term (Fc fusion) are 5.3 nM and 0.19 nM.
Consider H16N N-term (Fc fusion), for which the Kd with IL-2Rβ/γ Fc heterodimer was 22.4 nM; in test [1], 0.43 nM.
For R38Q N-term (Fc fusion), the Kd in the test with IL-2Rβ/γ Fc heterodimer amounted to 3.99 nM; in test [1], 0.71 nM.
The corresponding values for N88D C-term (Fc fusion) are 24 nM and 1.01 nM.
In the case of F42Q N-Term (Fc fusion), the Kd with IL-2Rβ/γ Fc heterodimer is 2.81 nM; in test [1], 9.48 nM.

By Kd is commonly meant a measure of binding affinity in units of concentration. Read a low Kd as tighter binding.
